Measurements as given in paper PMC2864300, “Regulation of NOXO1 Activity through Reversible Interactions with p22^phox and NOXA1” (PLoS ONE, 2010).
Like-named read-outs stand apart in the source and are kept apart here. Each block holds one molecule with its values, some of them ahead of it.

Assays:
p67^phox = details: cited from earlier work
Description: The phagocytic oxidase is still the best characterized member of this protein family and consists of a heterodimeric flavocytochrome (containing NOX2 and p22^phox) that makes up the catalytic core of the enzyme plus the cytosolic regulatory subunits p40^phox, p47^phox and p67^phox and the small GTPase Rac, [16]–[18]. Because excessive ROS production is cytotoxic and can induce a number of pathological processes, complicated regulatory mechanisms have evolved that tightly control the activity of the phagocytic oxidase. […] To gain further insight into the molecular basis of complex formation between these two proteins we measured binding of the human and mouse NOXA1-SH3 ... || In the phagocytic oxidase the p47^phox-p67^phox interaction is unusually strong (Kd of 20 nM), [26], due to the presence of two protein interfaces: contacts are made via the conserved PxxPxR motif (at amino acids 363–368), but also via an additional surface composed of residues 369–390 of p47^phox, which fold into a helix-turn-helix (HTH) motif and pack against β-sheets 2, 3 and 4 of SH3B p67^phox. Removal of this additional binding motif reduces the affinity for p67^phox to 20 µM.

murine p22^phoxC = assay: ITC, binding to mouse p22phox cytoplasmic domain
Experimental: Complex formation between NOXO1, NOXA1 and p22^phox fragments or peptides were measured by isothermal titration calorimetry using a MicroCal VP-ITC calorimeter (MicroCal Inc., Northampton, USA). All proteins were dialysed against ITC buffer (150 mM NaCl, 1 mM DTT and 50 mM HEPES, pH 7.4) and performed at 18°C. All peptides were dissolved in ITC buffer. Typically, 20–40 µM of protein in the cell was titrated by stepwise injections of a total of 200–300 µM of the ligand. Heats of dilution were determined by titrating protein or peptide into ITC buffer and subtracted from the raw ITC data prior to analysis with the software, Origin version 7.0, assuming a single-site binding model. Data were averaged over three to five experiments.

NOXA1 = details: COS cells; cited from earlier work
SH3 domain of NOXA1 = details: GST pull-downs; cited from earlier work
Description: To gain further insight into the molecular basis of complex formation between these two proteins we measured binding of the human and mouse NOXA1-SH3 ...

B1: p47^phox: cytosolic regulatory subunit of the phagocytic NADPH oxidase (protein, UniProt P14598 1-390, looked up)
Neutrophil cytosol factor 1: MGDTFIRHIALLGFEKRFVPSQHYVYMFLVKWQDLSEKVVYRRFTEIYEFHKTLKEMFPIEAGAINPENRIIPHLPAPKWFDGQRAAENRQGTLTEYCSTLMSLPTKISRCPHLLDFFKVRPDDLKLPTDNQTKKPETYLMPKDGKSTATDITGPIILQTYRAIANYEKTSGSEMALSTGDVVEVVEKSESGWWFCQMKAKRGWIPASFLEPLDSPDETEDPEPNYAGEPYVAIKAYTAVEGDEVSLLEGEAVEVIHKLLDGWWVIRKDDVTGYFPSMYLQKSGQDVSQAQRQIKRGAPPRRSSIRNAHSIHQRSRKRLSQDAYRRNSVRFLQQRRRQARPGPQSPGSPLEEERQTQRSKPQPAVPPRPSADLILNRCSESTKRKLASAV
Kd (p67^phox; additional binding motif (residues 369–390 of p47^phox) removed, ref [25], [26], read-out: affinity for p67^phox after removal of additional binding motif): 20000 nM
Kd (p67^phox; interaction with C-terminal SH3 domain of p67^phox, ref [25]–[27], read-out: affinity for p67^phox): 20 nM

Kd (murine p22^phoxC; ITC, 18°C, 150 mM NaCl, 1 mM DTT, 50 mM HEPES, pH 7.4, mouse p22^phoxC in syringe, NOXO1 construct in cell, averaged over three to five experiments, NB = no binding): 780 ± 60 nM
ΔH (murine p22^phoxC; ITC, 18°C, pH 7.4, mouse p22^phoxC in syringe, NB = no binding): -7.1 ± 0.05 kcal/mol
fold weakening of binding to p22^phox (murine p22^phoxC; mouse SH3AB–E in comparison to the tandem SH3 domains): around 10 -fold
B2: Mouse NOXO1 SH3AB–E: tandem SH3 domains plus the C-terminal portion of NOXO1 (mouse) (protein)
chain: QSIPCVQPFHTLDIRDRPFHTKAQEILDILLRHPSGWWLVENKDQQVAWFPAPYLEEVATCQGQESGLALQGSGRQFCTTQAYEGSRSDELSVPSGARVHVLETSDRGWWLCRYNGRTGLLPAMSLQPEGLGSLLGRPGFPDSAGADKVAEDRTIPPVVPTRPCMSAIQSRCCSITRRALGQEQGTRVPR
modifications: left off: GST, end not stated, cleaved

B3: NOXO1: NOX organizing protein 1 (protein, UniProt Q8NFA2 1-376, looked up)
NADPH oxidase organizer 1: MAGPRYPVSVQGAALVQIKRLQTFAFSVRWSDGSDTFVRRSWDEFRQLKKTLKETFPVEAGLLRRSDRVLPKLLGQASLDAPLLGRVGRTSRGLARLQLLETYSRRLLATAERVARSPTITGFFAPQPLDLEPALPPGSRVILPTPEEQPLSRAAGRLSIHSLEAQSLRCLQPFCTQDTRDRPFQAQAQESLDVLLRHPSGWWLVENEDRQTAWFPAPYLEEAAPGQGREGGPSLGSSGPQFCASRAYESSRADELSVPAGARVRVLETSDRGWWLCRYGDRAGLLPAVLLRPEGLGALLSGTGFRGGDDPAGEARGFPEPSQATAPPPTVPTRPSPGAIQSRCCTVTRRALERRPRRQGRPRGCVDSVPHPTTEQ
co-immunoprecipitation of NOXO1 and NOXA1 (NOXA1): both proteins could be co-immunopricipitated from COS cells
binding to the SH3 domain of NOXA1 (SH3 domain of NOXA1): failed to bind the SH3 domain of NOXA1
